# Assay: NADH/NADPH production assay, oxidation of 4-octanol by secondary alcohol dehydrogenases
# Format: biochemical
# Details: 30° C.; for oxidation of 4-octanol as measured by NADPH production: in the presence of NADP+, FIG. 30B
# Description: […] consumption and production assays were performed using a THERMOmax microplate reader in the kinetic mode, monitoring the NADPH absorbance peak at 340 nm until the reaction reached equilibrium. […] These reaction conditions are found in Table 4 below.
Molecule,"oxidation of 4-octanol as measured by NADH production (in the presence of NAD+, FIG. 30A)",oxidation of 4-octanol as measured by NADPH production
"2ADH-2: secondary alcohol dehydrogenase isolated from Pseudomonas putida KT2440, SEQ ID NO: 112 (protein, Pseudomonas putida KT2440) MSMTFSGQVALVTGAGAGIGRATALAFAHEGMKVVVADLDPVGGEATVAQIHAAGGEALFIACDVTRDAEVRQLHERLMAAYGRLDYAFNNAGIEIEQHRLAEGSEAEFDAIMGVNVKGVWLCMKYQLPLLLAQGGGAIVNTASVAGLGAAPKMSIYSASKHAVIGLTKSAAIEYAKKGIRVNAVCPAVIDTDMFRRAYQADPRKAEFAAAMHPVGRIGKVEEIASAVLYLCSDGAAFTTGHCLTVDGGATAI",catalyzes the oxidation of 4-octanol,
"2ADH-5: secondary alcohol dehydrogenase isolated from Pseudomonas putida KT2440, SEQ ID NO: 118 (protein, Pseudomonas putida KT2440) MSKQLTLEGKVALVQGGSRGIGAAIVRRLAREGAQVAFTYVSSAGPAEELAREITENGGKALALRADSADAAAVQLAVDDTEKALGRLDILVNNAGVLAVAPVTEFDLADFDHMLAVNVRSVFVASQAAARYMGQGGRIINIGSTNAERMPFAGGAPYAMSKSALVGLTRGMARDLGPQGITVNNVQPGPVDTDMNPASGEFAESLIPLMAIGRYGEPEEIASFVAYLAGPEAGYITGASLTVDGGFAA",,catalyze the oxidation of 4-octanol
"2ADH-8: secondary alcohol dehydrogenase isolated from Pseudomonas putida KT2440, SEQ ID NO: 124 (protein, Pseudomonas putida KT2440) MSLQGKVALVTGASRGIGQAIALELGRQGATVIGTATSASGAERIAATLKEHGITGTGMELNVTSAESVEAVLAAIGEQFGAPAILVNNAGITRDNLMLRMKDDEWFDVIDTNLNSLYRLSKGVLRGMTKARWGRIISIGSVVGAMGNAGQANYAAAKAGLEGFSRALAREVGSRGITVNSVTPGFIDTDMTRELPEAQREALQTQIPLGRLGQADEIAKVVSFLASDGAAYVTGATVPVNGGMYM",,catalyze the oxidation of 4-octanol
"2ADH-10: secondary alcohol dehydrogenase isolated from Pseudomonas putida KT2440, SEQ ID NO: 128 (protein, Pseudomonas putida KT2440) MSKTHLFDLDGKIAFVSGASRGIGEAIAHLLAQQGAHVIVSSRKLDGCQQVADAIIAAGGKATAVACHIGELEQIQQVFAGIREQFGRLDVLVNNAATNPQFCNVLDTDPGAFQKTVDVNIRGYFFMSVEAGKLMRENGGGSIINVASINGVSPGLFQGIYSVTKAAVINMTKVFAKECAPFGIRCNALLPGLTDTKFASALVKNEAILNAALQQIPLKRVADPKEMAGAVLYLASDASSYTTGTTLNVDGGFLS",,catalyze the oxidation of 4-octanol
